Here are results for one molecule from patent publication US20130064834A1 (published 2013).

For test [1], the target named is T1, mouse PCSK9, myc-myc-his tagged (mouse, UniProt Q80W65 35-694).
T1 construct: also called mPCSK9-mmh; mPCSK9
Kind of test: SPR, mAb amine-coupled, 25C, pH 7.4. A general note: Surface plasmon resonance follows binding to a sensor surface in real time, without labels.
From the text: (§1) Briefly, mAbs were immobilized onto BIACORE™ CM5 sensor chips via amine coupling.

For test [2], the target named is T2, his-tagged Syrian golden hamster (Mesocricetus auratus) PCSK9 (Syrian golden hamster (Mesocricetus …)).
T2 construct: also called maPCSK9-h; maPCSK9
T2 chain: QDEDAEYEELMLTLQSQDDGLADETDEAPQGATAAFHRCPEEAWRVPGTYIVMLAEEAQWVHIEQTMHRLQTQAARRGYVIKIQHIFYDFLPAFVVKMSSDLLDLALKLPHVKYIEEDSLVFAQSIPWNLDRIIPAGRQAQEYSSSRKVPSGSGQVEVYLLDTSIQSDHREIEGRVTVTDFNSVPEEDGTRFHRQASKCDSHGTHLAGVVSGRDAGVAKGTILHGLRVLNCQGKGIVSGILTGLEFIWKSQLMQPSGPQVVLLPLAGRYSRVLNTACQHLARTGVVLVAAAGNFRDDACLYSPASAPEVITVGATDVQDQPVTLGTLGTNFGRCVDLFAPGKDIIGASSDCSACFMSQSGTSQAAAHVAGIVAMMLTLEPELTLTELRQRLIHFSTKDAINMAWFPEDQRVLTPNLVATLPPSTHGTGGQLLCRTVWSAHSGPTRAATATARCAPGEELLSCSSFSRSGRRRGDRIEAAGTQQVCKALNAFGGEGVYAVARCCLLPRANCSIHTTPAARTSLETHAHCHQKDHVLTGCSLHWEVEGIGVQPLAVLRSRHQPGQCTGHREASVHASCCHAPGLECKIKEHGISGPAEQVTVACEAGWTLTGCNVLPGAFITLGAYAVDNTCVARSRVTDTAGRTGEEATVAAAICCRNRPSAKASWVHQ
The experiment in a line: SPR, mAb amine-coupled, 25C, pH 7.4.
From the text: as §1

The target in test [3] is T3, tagged rhesus monkey (Macaca mulata) PCSK9 (rhesus monkey (Macaca mulata), UniProt A8T666 31-692).
T3 construct: also called mmPCSK9-mmh; mmPCSK9
Kind of test: SPR, 25C.

Test [4] has as its target T4, cynomolgus monkey (Macaca fascicularis) PCSK9, myc-myc-his tagged (cynomolgus monkey (Macaca fascicularis), UniProt A8T662 31-692 (Macaca nemestrina entry), limits assumed).
T4 construct: also called mfPCSK9-mmh; mfPCSK9
Kind of test: SPR, mAb captured on anti-hFc, 25C.

Test [5] addresses T5, Chimeric protein #3 (mPro-mCat-hC-term-mmh) (mouse; human).
T5 chain: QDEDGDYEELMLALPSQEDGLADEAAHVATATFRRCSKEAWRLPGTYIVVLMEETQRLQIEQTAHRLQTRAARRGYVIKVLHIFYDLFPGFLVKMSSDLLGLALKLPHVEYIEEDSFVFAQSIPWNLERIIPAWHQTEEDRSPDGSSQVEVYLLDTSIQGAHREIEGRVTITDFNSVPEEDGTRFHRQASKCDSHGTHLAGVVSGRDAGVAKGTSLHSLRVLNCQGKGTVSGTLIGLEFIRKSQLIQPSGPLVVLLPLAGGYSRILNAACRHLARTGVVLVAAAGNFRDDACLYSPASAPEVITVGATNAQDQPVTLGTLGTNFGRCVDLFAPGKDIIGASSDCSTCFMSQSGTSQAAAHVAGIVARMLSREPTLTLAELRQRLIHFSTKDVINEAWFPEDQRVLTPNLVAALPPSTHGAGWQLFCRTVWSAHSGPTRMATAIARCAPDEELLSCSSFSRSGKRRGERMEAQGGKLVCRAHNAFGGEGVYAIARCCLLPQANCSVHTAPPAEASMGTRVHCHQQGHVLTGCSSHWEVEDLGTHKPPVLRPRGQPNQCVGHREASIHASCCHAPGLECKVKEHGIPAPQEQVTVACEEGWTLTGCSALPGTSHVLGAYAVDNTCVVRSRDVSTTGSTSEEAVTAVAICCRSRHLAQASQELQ
Kind of test: SPR, mAb captured on anti-hFc, 100 nM antigen.
Method: Changes in RU due to the binding of each protein to the mAb surface was determined.

A further test addresses T6, hPCSK9(D374Y)-mmh (human, UniProt Q8NBP7 31-692).
T6 construct: also called hPCSK(D374Y)-mmh
The experiment in a line: ELISA, mAb coated, 1.2 nM antigen.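 Further: antigen allowed to bind for 1 h at room temperature, then captured protein revealed with an HRP-linked polyclonal anti-myc antibody and read as optical density.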

Another test concerns the target T7, Human PCSK9-myc-myc-his (human, UniProt Q8NBP7 31-692).
T7 construct: also called hPCSK9-mmh; hPCSK9
Kind of test: ELISA, mAb coated, 1.2 nM antigen.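 Further: antigen allowed to bind for 1 h at room temperature, then captured protein revealed with an HRP-linked polyclonal anti-myc antibody and read as optical density.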

The target in test [6] is T1, mouse PCSK9, myc-myc-his tagged. The experiment in a line: ELISA, mAb coated, 1.2 nM antigen. (In general: In an ELISA, binding on a coated surface is turned into a signal by an enzyme label.)
From the text: (§2) After 1 hr binding at RT, the plate was washed and bound test protein detected using HRP-conjugated anti-myc polyclonal antibody (++=OD>1.0; +=OD 0.4-1.0; −=OD<0.4).
For test [7], the target named is Chimeric protein #2 (hPro-mCat-mC-term-mmh) (human; mouse, UniProt Q80W65 19-694). Kind of test: ELISA, mAb coated, 1.2 nM antigen.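 Further: antigen allowed to bind for 1 h at room temperature, then captured protein revealed with an HRP-linked polyclonal anti-myc antibody and read as optical density.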
From the text: as §2
The target of test [8] is T5, Chimeric protein #3 …. Kind of test: ELISA, mAb coated, 1.2 nM antigen.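 Further: antigen allowed to bind for 1 h at room temperature, then captured protein revealed with an HRP-linked polyclonal anti-myc antibody and read as optical density.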
From the text: as §2
Test [9] deals with T8, Chimeric protein #1 (mPro-hCat-mC-term-mmh) (mouse; human, UniProt Q80W65 35-694).
T8 chain: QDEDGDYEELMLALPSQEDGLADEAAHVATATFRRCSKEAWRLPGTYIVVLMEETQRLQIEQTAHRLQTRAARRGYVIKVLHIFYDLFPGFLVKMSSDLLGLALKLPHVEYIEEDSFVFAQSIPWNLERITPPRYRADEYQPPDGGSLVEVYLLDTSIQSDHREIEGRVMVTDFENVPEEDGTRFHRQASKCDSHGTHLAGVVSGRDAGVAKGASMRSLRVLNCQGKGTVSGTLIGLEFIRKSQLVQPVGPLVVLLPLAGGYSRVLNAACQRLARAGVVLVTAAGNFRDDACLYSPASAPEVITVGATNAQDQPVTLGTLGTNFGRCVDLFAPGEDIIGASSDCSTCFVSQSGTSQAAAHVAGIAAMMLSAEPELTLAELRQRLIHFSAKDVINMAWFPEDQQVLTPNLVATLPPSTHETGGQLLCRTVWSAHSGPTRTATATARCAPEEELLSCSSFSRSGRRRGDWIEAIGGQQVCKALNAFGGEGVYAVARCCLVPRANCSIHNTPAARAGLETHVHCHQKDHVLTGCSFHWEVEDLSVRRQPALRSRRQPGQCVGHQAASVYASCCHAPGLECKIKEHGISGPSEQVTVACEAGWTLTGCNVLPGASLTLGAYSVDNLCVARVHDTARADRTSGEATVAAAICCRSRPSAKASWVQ
Kind of test: ELISA, mAb coated, 1.2 nM antigen.
From the text: as §2

T3 sequence (A8T666 31-692 limits assumed): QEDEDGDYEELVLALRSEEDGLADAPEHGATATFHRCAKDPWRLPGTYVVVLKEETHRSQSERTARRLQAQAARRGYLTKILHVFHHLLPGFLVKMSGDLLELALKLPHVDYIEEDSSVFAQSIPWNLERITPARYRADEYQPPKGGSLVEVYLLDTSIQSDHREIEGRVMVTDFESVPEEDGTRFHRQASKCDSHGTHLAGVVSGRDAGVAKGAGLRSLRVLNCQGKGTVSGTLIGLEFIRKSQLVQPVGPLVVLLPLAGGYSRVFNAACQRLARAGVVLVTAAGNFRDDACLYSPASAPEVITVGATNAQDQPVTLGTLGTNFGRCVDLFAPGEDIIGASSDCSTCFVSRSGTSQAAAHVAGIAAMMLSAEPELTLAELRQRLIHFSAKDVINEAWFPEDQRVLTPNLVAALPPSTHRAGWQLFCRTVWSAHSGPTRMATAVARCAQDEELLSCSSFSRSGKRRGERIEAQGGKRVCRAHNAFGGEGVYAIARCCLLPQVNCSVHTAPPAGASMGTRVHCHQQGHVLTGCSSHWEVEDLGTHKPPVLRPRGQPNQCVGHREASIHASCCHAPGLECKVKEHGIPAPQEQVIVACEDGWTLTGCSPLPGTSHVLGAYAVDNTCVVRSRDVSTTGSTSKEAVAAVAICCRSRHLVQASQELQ
T4 sequence (A8T662 31-692 limits assumed): as the sequence (A8T666 31-692 limits assumed) above, with P607A, K639E counted along it
From the text for Human PCSK9-myc-myc-his: as §2
From the text for hPCSK9(D374Y)-mmh: as §2

B1: H1H316P (antibody, V domains shown)
VH: EVQLVESGGGLVQPGGSLRLSCAASGFTFNNYAMNWVRQAPGKGLDWVSTISGSGGTTNYADSVKGRFIISRDSSKHTLYLQMNSLRAEDTAVYYCAKDSNWGNFDLWGRGTLVTVSS
VL: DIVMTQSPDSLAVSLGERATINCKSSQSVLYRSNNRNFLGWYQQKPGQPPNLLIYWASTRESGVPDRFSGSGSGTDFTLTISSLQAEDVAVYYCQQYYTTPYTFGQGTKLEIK
notes: Fully human mAb made in CHO cells; also called mAb316P
Regarding B1, the Kd in test [1] is 4.46 nM; in test [2], 8.35 nM; in test [4] it was 0.52 nM. In addition, the T1/2 in [1] is 10 min; in test [2], 8 min; in test [3], 51 min; in [4] it was 60 min. The molecule also returned a koff in [3] of 0.000229 s⁻¹. Besides, the “change in RU” value in test [5] worked out at 467 RU. For the same molecule, the OD (in the test with hPCSK9(D374Y)-mmh; in the test with Human PCSK9-myc-myc-his; in test [6]; in [7]; in test [8]; in test [9]) was more than 1 od throughout.

By Kd is commonly meant a measure of binding affinity in units of concentration. As a reminder, the koff is the rate constant with which the complex falls apart.
